According to US20180298097A1:

Tests used:
CHO-huTIM3 = CHO-huTIM3 (UniProt Q8TDQ0); assay: FACS binding, CHO-huTIM3 transfectant; isotype control
mouse TIM3 (mouse) [1] = molecular target: mouse TIM3 (mouse) (UniProt Q8VIM0); assay: binding to activated mouse T cells; method not described
mouse TIM3 (mouse) [2] = molecular target: mouse TIM3 (mouse) (UniProt Q8VIM0); assay: binding to activated mouse T cells, compared with TIM3.18 binding to human TIM-3

Sequence of mouse TIM3 (mouse) (Q8VIM0 20-281): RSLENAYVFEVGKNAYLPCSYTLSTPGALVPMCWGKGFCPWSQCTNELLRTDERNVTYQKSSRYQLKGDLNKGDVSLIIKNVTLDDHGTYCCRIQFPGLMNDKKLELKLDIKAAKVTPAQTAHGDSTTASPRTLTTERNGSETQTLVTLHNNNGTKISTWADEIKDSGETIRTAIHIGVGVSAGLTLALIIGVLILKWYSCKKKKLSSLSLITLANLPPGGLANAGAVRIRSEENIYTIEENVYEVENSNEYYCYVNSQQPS

Substance	EC50 (CHO-huTIM3) [mg/mL]	EC50 (mouse TIM3 (mouse) [1]) [nM]	fold weaker EC50 than TIM3.18 on human TIM-3 (mouse TIM3 (mouse) [2]) [fold]
hIgG2	42.3	–	–
rat anti-mouse TIM-3 antibody RMT3-23 (Bio-X-Cell)	–	1.7	17
hIgG4	29.3	–	–
